Test results taken from patent US20240049668A1 (VILMORIN AND CIE, published 2024).
Changes are numbered by the printed parent chain. Like-named read-outs stand apart in the source and are kept apart here.

Key:
Assay in all cases: cell-based or functional assay
[1] = target: T1, Movement Protein of ToBRFV (Tomato Brown Rugose Fruit Virus …, UniProt A0A0S2SZW1 1-266)
T1 sequence: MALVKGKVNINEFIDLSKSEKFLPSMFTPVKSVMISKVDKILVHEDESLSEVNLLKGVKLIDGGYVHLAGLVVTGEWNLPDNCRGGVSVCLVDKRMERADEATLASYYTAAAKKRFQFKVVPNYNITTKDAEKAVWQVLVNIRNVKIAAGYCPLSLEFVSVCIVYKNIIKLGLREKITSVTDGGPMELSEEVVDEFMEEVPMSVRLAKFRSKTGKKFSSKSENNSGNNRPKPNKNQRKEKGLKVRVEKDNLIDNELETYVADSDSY

[2] = target: T1, Movement Protein of ToBRFV; remark: listed apart in the source
[3] = target: T1, Movement Protein of ToBRFV; remark: listed apart in the source
[4] = target: T1, Movement Protein of ToBRFV; remark: listed apart in the source

B1: TM-2-2 variant pJL 468_A (848 A) (receptor)
chain: MAEILLTSVINKSVEIAGNLLIQEGKRLYWLKEDIDWLQREMRHIRSYVDNAKAKEAGGDSRVKNLLKDIQELAGDVEDLLDDFLPKIQQSNKFNYCLKRSSFADEFAMEIEKIKRRVVDIDRIRKTYNIIDTDNNNDDCVLLDRRRLFLHADETEIIGLDDDFNMLQAKLLNQDLHYGVVSIVGMPGLGKTTLAKKLYRLIRDQFECSGLVYVSQQPRASEILLDIAKQIGLTEQKMKENLEDNLRSLLKIKRYVILLDDIWDVEIWDDLKLVLPECDSKVGSRMIITSRNSNVGRYIGGESSLHALQPLESEKSFELFTKKIFNFDDNNSWANASPDLVNIGRNIVGRCGGIPLAIVVTAGMLRARERTEHAWNRVLESMGHKVQDGCAKVLALSYNDLPIASRPCFLYFGLYPEDHEIRAFDLINMWIAEKFIVVNSGNRREAEDLAEDVLNDLVSRNLIQLAKRTYNGRISSCRIHDLLHSLCVDLAKESNFFHTAHDAFGDPGNVARLRRITFYSDNVMIEFFRSNPKLEKLRVLFCFAKDPSIFSHMAYFDFKLLHTLVVVMSQSFQAYVTIPSKFGNMTCLRYLRLEGNICGKLPNSIVKLTRLETIDIDRRSLIQPPSGVWESKHLRHLCYRDYGQACNSCFSISSFYPNIYSLHPNNLQTLMWIPDKFFEPRLLHRLINLRKLGILGVSNSTVKMLSIFSPVLKALEVLKLSFSSDPSEQIKLSSYPHIAKLHLNVNRTMALNSQSFPPNLIKLTLAYFSVDRYILAVLKTFPKLRKLKMFICKYNEEKMDLSGEANGYSFPQLEVLHIHSPNGLSEVTCTDDVSMPKLKKLLLTGFHARISLSERLKKLSK
HR when expressed with MP Rugose [1]: < 1 HR scale 0-4

B2: TM-2-2 variant pJL 476_S (822 S, 848 R) (receptor)
chain: B1 chain with N822S, A848R
HR to MP Rugose [2]: 4 HR scale 0-4

B3: TM-2-2 variant pJL 468_H (848 H) (receptor)
chain: B1 chain with A848H
HR when expressed with MP Rugose [1]: < 1 HR scale 0-4

B4: TM-2-2 variant pJL 468_E (848 E) (receptor)
chain: B1 chain with A848E
HR when expressed with MP Rugose [1]: < 1 HR scale 0-4

B5: TM-2-2 variant pJL 476_I (822 I, 848 R) (receptor)
chain: B1 chain with N822I, A848R
HR to MP Rugose [2]: 0 HR scale 0-4

B6: TM-2-2 variant L11_15 (767 L) (receptor)
chain: B1 chain with Y767L, A848C
HR to MP Rugose [3]: 0 HR scale 0-4

B7: TM-2-2 variant pJL 468_L (848 L) (receptor)
chain: B1 chain with A848L
HR when expressed with MP Rugose [1]: < 1 HR scale 0-4

B8: TM-2-2 variant L11_20 (767 V) (receptor)
chain: B1 chain with Y767V, A848C
HR to MP Rugose [3]: 0 HR scale 0-4

B9: TM-2-2 variant L11_11 (767 C) (receptor)
chain: B1 chain with Y767C, A848C
HR to MP Rugose [3]: 0 HR scale 0-4

B10: TM-2-2 variant pJL 468_D (848 D) (receptor)
chain: B1 chain with A848D
HR when expressed with MP Rugose [1]: < 1 HR scale 0-4

B11: TM-2-2 variant pJL 476_F (822 F, 848 R) (receptor)
chain: B1 chain with N822F, A848R
HR to MP Rugose [2]: 2 HR scale 0-4

B12: TM-2-2 variant pJL 476_T (822 T, 848 R) (receptor)
chain: B1 chain with N822T, A848R
HR to MP Rugose [2]: < 1 HR scale 0-4

B13: TM-2-2 variant L11_1 (767 R) (receptor)
chain: B1 chain with Y767R, A848C
HR to MP Rugose [3]: < 1 HR scale 0-4

B14: TM-2-2 variant L11_16 (767 G) (receptor)
chain: B1 chain with Y767G, A848C
HR to MP Rugose [3]: 0 HR scale 0-4

B15: TM-2-2 variant pJL 477_H (822 H, 848 R) (receptor)
chain: B1 chain with N822H, A848R
HR to MP Rugose [2]: < 1 HR scale 0-4

B16: TM-2-2 variant pJL 480E (848 R, 857 E) (receptor)
chain: B1 chain with A848R, K857E
HR to MP Rugose [4]: < 1 HR scale 0-4

B17: TM-2-2 variant L11_19 (767 N) (receptor)
chain: B1 chain with Y767N, A848C
HR to MP Rugose [3]: 0 HR scale 0-4

B18: TM-2-2 variant pJL 468_T (848 T) (receptor)
chain: B1 chain with A848T
HR when expressed with MP Rugose [1]: ~1 HR scale 0-4

B19: TM-2-2 variant pJL 468_Q (848 Q) (receptor)
chain: B1 chain with A848Q
HR when expressed with MP Rugose [1]: < 1 HR scale 0-4

B20: TM-2-2 variant pJL 480R (848 R, 857 R) (receptor)
chain: B1 chain with A848R, K857R
HR to MP Rugose [4]: < 1 HR scale 0-4

B21: TM-2-2 variant pJL 476_R (822 R, 848 R) (receptor)
chain: B1 chain with N822R, A848R
HR to MP Rugose [2]: 0 HR scale 0-4

B22: TM-2-2 variant pJL 476_K (822 K, 848 R) (receptor)
chain: B1 chain with N822K, A848R
HR to MP Rugose [2]: 0 HR scale 0-4

B23: TM-2-2 variant pJL 477_D (822 D, 848 R) (receptor)
chain: B1 chain with N822D, A848R
HR to MP Rugose [2]: < 1 HR scale 0-4

B24: TM-2-2 variant pJL 468_N (848 N) (receptor)
chain: B1 chain with A848N
HR when expressed with MP Rugose [1]: < 1 HR scale 0-4

B25: TM-2-2 variant pJL 468_S (848 S) (receptor)
chain: B1 chain with A848S
HR when expressed with MP Rugose [1]: ~1 HR scale 0-4

B26: TM-2-2 variant pJL 476_C (822 C, 848 R) (receptor)
chain: B1 chain with N822C, A848R
HR to MP Rugose [2]: 2 HR scale 0-4

B27: TM-2-2 variant pJL 468_R (848 R) (receptor)
chain: B1 chain with A848R
HR when expressed with MP Rugose [1]: 4 HR scale 0-4

B28: TM-2-2 variant pJL 480I (848 R, 857 I) (receptor)
chain: B1 chain with A848R, K857I
HR to MP Rugose [4]: < 1 HR scale 0-4

B29: TM-2-2 variant pJL 468_M (848 M) (receptor)
chain: B1 chain with A848M
HR when expressed with MP Rugose [1]: < 1 HR scale 0-4

B30: TM-2-2 variant pJL 480Q (848 R, 857 Q) (receptor)
chain: B1 chain with A848R, K857Q
HR to MP Rugose [4]: 3 HR scale 0-4

B31: TM-2-2 variant L11_10 (767 I) (receptor)
chain: B1 chain with Y767I, A848C
HR to MP Rugose [3]: 0 HR scale 0-4

B32: TM-2-2 variant pJL 468_K (848 K) (receptor)
chain: B1 chain with A848K
HR when expressed with MP Rugose [1]: ~1 HR scale 0-4

B33: TM-2-2 variant pJL 468_P (848 P) (receptor)
chain: B1 chain with A848P
HR when expressed with MP Rugose [1]: < 1 HR scale 0-4

B34: TM-2-2 variant pJL 480T (848 R, 857 T) (receptor)
chain: B1 chain with A848R, K857T
HR to MP Rugose [4]: < 1 HR scale 0-4
